Substitutions are numbered along the chain they refer to.
B1: R44: mhuTF with arginine substituted in place of D44 (protein, UniProt P13726 33-251, looked up, variant D44R)
extracellular domain: SGTTNTVAAYNLTWKSTNFKTILEWEPKPVNQVYTVQISTKSGRWKSKCFYTTDTECDLTDEIVKDVKQTYLARVFSYPAGNVESTGSAGEPLYENSPEFTPYLETNLGQPTIQSFEQVGTKVNVTVEDERTLVRRNNTFLSLRDVFGKDLIYTLYYWKSSSSGKKTAKTNTNEFLIDVDKGENYCFSVQAVIPSRTVNRKSTDSPVECMGQEKGEFRE
modifications: extracellular domain
notes: mhuTF with arginine substituted in place of D44
B2: Asp-58 to Ala: human tissue factor mutant with alanine substituted for Asp-58 (protein, UniProt P13726 33-295, looked up, variant D58A)
Tissue factor: SGTTNTVAAYNLTWKSTNFKTILEWEPKPVNQVYTVQISTKSGDWKSKCFYTTDTECALTDEIVKDVKQTYLARVFSYPAGNVESTGSAGEPLYENSPEFTPYLETNLGQPTIQSFEQVGTKVNVTVEDERTLVRRNNTFLSLRDVFGKDLIYTLYYWKSSSSGKKTAKTNTNEFLIDVDKGENYCFSVQAVIPSRTVNRKSTDSPVECMGQEKGEFREIFYIIGAVVFVVIILVIILAISLHKCRKAGVGQSWKENSPLNVS
B3: Ile-22 to Ala: human tissue factor mutant with alanine substituted for Ile-22 (protein, UniProt P13726 33-295, looked up, variant I22A)
Tissue factor: B2 Tissue factor with I22A, A58D
B4: Val-64/Tyr-71 to Ala: human tissue factor double mutant with alanines for Val-64 and Tyr-71 (protein, UniProt P13726 33-295, looked up, variant V64A Y71A)
Tissue factor: B2 Tissue factor with A58D, V64A, Y71A
B5: Arg-196: human tissue factor alanine mutant at Arg-196 (protein, UniProt P13726 33-295, looked up, variant R196A)
Tissue factor: B2 Tissue factor with A58D, R196A
B6: Phe-140: human tissue factor alanine mutant at Phe-140 (protein, UniProt P13726 33-295, looked up, variant F140A)
Tissue factor: B2 Tissue factor with A58D, F140A
B7: Arg-135: human tissue factor alanine mutant at Arg-135 (protein, UniProt P13726 33-295, looked up, variant R135A)
Tissue factor: B2 Tissue factor with A58D, R135A
B8: Ser-16: human tissue factor mutant with alanine substituted for Ser-16 (protein, UniProt P13726 33-295, looked up, variant S16A)
Tissue factor: B2 Tissue factor with S16A, A58D
B9: Arg-136: human tissue factor alanine mutant at Arg-136 (protein, UniProt P13726 33-295, looked up, variant R136A)
Tissue factor: B2 Tissue factor with A58D, R136A
B10: S16-T17-K20: human tissue factor triple mutant with alanines at positions 16, 17 and 20 (protein, UniProt P13726 33-295, looked up, variant S16A T17A K20A)
Tissue factor: B2 Tissue factor with S16A, T17A, K20A, A58D
B11: Arg-131: human tissue factor alanine mutant at Arg-131 (protein, UniProt P13726 33-295, looked up, variant R131A)
Tissue factor: B2 Tissue factor with A58D, R131A
B12: Thr-17: human tissue factor mutant with alanine substituted for Thr-17 (protein, UniProt P13726 33-295, looked up, variant T17A)
Tissue factor: B2 Tissue factor with T17A, A58D
B13: Asn-199: human tissue factor alanine mutant at Asn-199 (protein, UniProt P13726 33-295, looked up, variant N199A)
Tissue factor: B2 Tissue factor with A58D, N199A
B14: Arg-200/Lys-201: human tissue factor alanine double mutant at Arg-200 and Lys-201 (protein, UniProt P13726 33-295, looked up, variant R200A K201A)
Tissue factor: B2 Tissue factor with A58D, R200A, K201A
B15: Val-67: human tissue factor mutant with alanine substituted for Val-67 (protein, UniProt P13726 33-295, looked up, variant V67A)
Tissue factor: B2 Tissue factor with A58D, V67A
B16: Asp-145: human tissue factor alanine mutant at Asp-145 (protein, UniProt P13726 33-295, looked up, variant D145A)
Tissue factor: B2 Tissue factor with A58D, D145A
B17: S39-T40-S42: human tissue factor triple mutant with alanines at positions 39, 40 and 42 (protein, UniProt P13726 33-295, looked up, variant S39A T40A S42A)
Tissue factor: B2 Tissue factor with S39A, T40A, S42A, A58D
B18: Phe-19: human tissue factor mutant with alanine substituted for Phe-19 (protein, UniProt P13726 33-295, looked up, variant F19A)
Tissue factor: B2 Tissue factor with F19A, A58D
B19: Tyr-71: human tissue factor mutant with alanine substituted for Tyr-71 (protein, UniProt P13726 33-295, looked up, variant Y71A)
Tissue factor: B2 Tissue factor with A58D, Y71A
B20: Thr-139/Ser-142: human tissue factor alanine double mutant at Thr-139 and Ser-142 (protein, UniProt P13726 33-295, looked up, variant T139A S142A)
Tissue factor: B2 Tissue factor with A58D, T139A, S142A
B21: Phe-147: human tissue factor alanine mutant at Phe-147 (protein, UniProt P13726 33-295, looked up, variant F147A)
Tissue factor: B2 Tissue factor with A58D, F147A
B22: Thr-106: human tissue factor mutant with Ala replacement for Thr-106 (protein, UniProt P13726 33-295, looked up, variant T106A)
Tissue factor: B2 Tissue factor with A58D, T106A
B23: Val-198: human tissue factor alanine mutant at Val-198 (protein, UniProt P13726 33-295, looked up, variant V198A)
Tissue factor: B2 Tissue factor with A58D, V198A
B24: Glu-105: human tissue factor mutant with Ala replacement for Glu-105 (protein, UniProt P13726 33-295, looked up, variant E105A)
Tissue factor: B2 Tissue factor with A58D, E105A
B25: Val-146: human tissue factor alanine mutant at Val-146 (protein, UniProt P13726 33-295, looked up, variant V146A)
Tissue factor: B2 Tissue factor with A58D, V146A
B26: K65-D66-K68: human tissue factor triple alanine mutant at positions 65, 66 and 68 (protein, UniProt P13726 33-295, looked up, variant K65A D66A K68A)
Tissue factor: B2 Tissue factor with A58D, K65A, D66A, K68A

Test system: Factor X
Experiment: ability to functionally cleave Factor X (reaction rate Vmax) of D44 mutants
Assay type: biochemical
Conditions: D44 substitution study
Experimental: (§1) The lysate was prepared by treating cell pellets with 15 mM octyl-glucopyranoside for 15 minutes at 37C. followed by a 3-fold dilution. […] Formed TF-VIIa complexes were quantified with substrate factor X added at 100 nM for a fixed time. Samples were then removed from the reaction and quenched in 100 mM EDTA in TBS (20 mM Tris-HCl, 140 mM NaCl, pH 7.4). The formation of Xa in the quenched reaction was determined with the chromogenic peptidyl substrate, Spectrozyme FXa (1.2 mM). The rate of Spectrozyme hydrolysis, measured as the increase in absorbance (mOD/min), was determined at ambient temperature in a kinetic plate reader (Molecular Devices, Mountain View, Calif.) followed by quenching and monitoring of product factor Xa formation using the Spectrozyme FXa.
Additional mhuTF mutants were prepared based on amino acid residue substitutions at amino acid residue position number D44.

Row | Molecule | loss of function (specific functional activity, Vmax) compared to wild-type [%]
1 | B1 | 75

Same assay, conditions: Factor X cleavage; D44 substitution study

Row | Molecule | reaction rate (Vmax) [per second]
2 | B1 | ~0.5

Test system: VIIa
Experiment: linked chromogenic assay with purified VIIa and factor X (apparent dissociation constant of TF-VIIa)
Assay type: binding
Conditions: 5 mM Ca2+, Factor X 100 nM
Experimental: as §1
Enzfitter (Elsevier Biosoft) programs were employed to calculate the KDapp from the experimentally determined bound VIIa, and free VIIa which was obtained by subtracting bound VIIa from the initial VIIa concentration.

Row | Molecule | increase in KDapp for the TF-VIIa interaction compared to wild-type TF (ratio KD mutant/KD wild-type) [fold]
3 | B2 | 41
4 | B3 | 11
5 | B4 | 2.1
6 | B5 | 3.5
7 | B6 | 18
8 | B7 | 7.4

Test system: recalcified plasma
Experiment: one stage clotting (coagulation) assay of full-length TF mutants in CHO cell lysates
Assay type: biochemical
Conditions: coagulant activity normalized to antigen concentration; full-length mutants expressed in CHO cells
Experimental: The full-length TF mutants prepared above were analyzed for function by coagulation assay. […] Coagulation factor deficient plasmas were purchased from George King Bio-medical. The chromogenic substrate, Spectrozyme FXa, was from American Diagnostica Inc. (Greenwich, Conn.).
An alternative approach was to use a polyvalent antibody purified by affinity for capturing TF followed by detection with the TF8-5G9 monoclonal antibody described above.
Initiation of coagulation by wild-type and mutant TF in recalcified plasma was determined after lysis of cell pellets from 2×10^6 cells/ml for each expressed full-length mutant with 15 mM octyl-glucopyranoside in HBS for 15 minutes at 37C. followed by a 3-fold dilution.
All data represented are based on at least three independent determinations performed in duplicate.

Row | Molecule | reduction in specific functional activity (loss of function) relative to wild-type TF
9 | B8 | more than 70%
10 | B9 | 30-50%
11 | B10 | 98%
12 | B11 | 30-50%
13 | B12 | more than 70%
14 | B13 | 30-80%
15 | B14 | 30-80%
16 | B15 | 53%
17 | B16 | 30-50%
18 | B3 | 35%
19 | B17 | 43%
20 | B18 | more than 70%
21 | B19 | 98%
22 | B20 | 30-50%
23 | B21 | 30-50%
24 | B22 | more than 50%
25 | B23 | 30-80%
26 | B24 | more than 50%
27 | B6 | 30-50%
28 | B25 | 30-50%
29 | B7 | 30-50%
30 | B26 | 70%

Same assay, conditions: summary statement in the description

Row | Molecule | reduction in tissue factor procoagulant cofactor activity when compared to wt-TF [%]
31 | B8 | ≥ 75
32 | B12 | ≥ 75
33 | B13 | ≥ 75

Source: patent publication US5994296A, “Human mutant tissue factor compositions useful as tissue factor antagonists” (priority 1998, dated 1999)
